Patent publication US20100297153A1 (CRUCELL HOLLAND B V, published 2010)

Key:
[1] = biological target: T1, ATAD3A (human protein having the amino acid sequence SEQ ID NO:6) (human, UniProt Q9NVI7 2-586, limits assumed); experiment: CR2361 affinity column loaded with NB4 cell lysate, elution at pH 2.7, SDS-PAGE bands identified by MALDI-MS
T1 construct: Endogenous protein from a RIPA lysate of NB4 cells; Bands of 30, 40 and 75 kDa eluted from the CR2361 column gave ATAD3A peptides; No peptides were identified from the 150 kDa band
T1 sequence: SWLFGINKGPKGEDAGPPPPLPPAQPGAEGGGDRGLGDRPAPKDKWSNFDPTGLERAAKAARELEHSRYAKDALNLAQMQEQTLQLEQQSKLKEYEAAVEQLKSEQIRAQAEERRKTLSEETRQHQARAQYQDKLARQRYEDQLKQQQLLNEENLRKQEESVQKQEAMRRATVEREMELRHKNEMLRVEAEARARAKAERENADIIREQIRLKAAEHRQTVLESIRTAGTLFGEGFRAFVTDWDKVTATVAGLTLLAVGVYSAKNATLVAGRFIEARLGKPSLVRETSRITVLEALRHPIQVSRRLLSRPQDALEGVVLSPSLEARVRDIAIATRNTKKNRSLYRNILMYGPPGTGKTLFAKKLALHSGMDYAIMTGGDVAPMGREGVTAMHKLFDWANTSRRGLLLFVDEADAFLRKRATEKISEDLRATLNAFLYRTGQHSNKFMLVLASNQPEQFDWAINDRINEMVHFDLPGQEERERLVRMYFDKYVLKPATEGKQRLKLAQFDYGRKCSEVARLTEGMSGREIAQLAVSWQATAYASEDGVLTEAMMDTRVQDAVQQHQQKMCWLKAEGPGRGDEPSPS
Procedure: In advance the IgG1s were passed over a 100 kDa ultracentrifugal device to remove incomplete small IgG fragments.
For the purification of the target antigen of CR2361, an affinity column was prepared as described above for CR2401. A cell lysate of 4*10⁹ NB4 cell was prepared in RIPA buffer, according to the method described in Example 5. The cell lysate was treated essentially as described above and applied to the negative control affinity column that was connected in series to the CR2361 affinity column and an AKTA FPLC 900. The system was equilibrated with RIPA buffer. The lysate was applied to the columns at 1 ml/min and the columns were washed with 5 column volumes of RIPA buffer, followed by a salt gradient from 150 mM NaCl to 500 mM NaCl, a wash with 5 column volumes TX-100 buffer (1% Triton X-100, 150 mM NaCl, 50 mM Tris pH 7.4, protease inhibitors (Roche)) and an elution of 5 column volumes glycine, pH 2.7, whereby after 1 column volume of elution buffer the flow through was put for 10 minutes on hold to enhance the release of immune complexes. Next, the column was washed with 5 column volumes of TX-100 buffer. The eluted fractions of 0.5 ml were neutralized with 20 μl 2 M Tris/HCl, pH 7.4, and 20 μl of the samples were run on a non-reducing SDS-PAGE Criterion gel and stained with silver stain according to standard techniques known to the skilled artisan. […]

[2] = biological target: T2, mycATAD3A (ATAD3A with a myc tag at the 5' end) (human, UniProt Q9NVI7 2-586); experiment: immunoprecipitation from lysate of transfected HEK293T cells, immunoblot with anti-myc
T2 construct: Expressed in transfected HEK293T cells and immunoprecipitated from a 1% Triton X-100 lysate; also called 5' myc-tagged ATAD3A
T2 sequence: T1 sequence

[3] = biological target: T3, ATAD3Amyc (ATAD3A with a myc tag at the 3' end) (human, UniProt Q9NVI7 1-586); experiment: as above
T3 construct: Expressed in transfected HEK293T cells and immunoprecipitated from a 1% Triton X-100 lysate; also called 3' myc-tagged ATAD3A; not shown: C-terminal myc tag, in frame from vector pcDNA3.1/hismycA
T3 sequence: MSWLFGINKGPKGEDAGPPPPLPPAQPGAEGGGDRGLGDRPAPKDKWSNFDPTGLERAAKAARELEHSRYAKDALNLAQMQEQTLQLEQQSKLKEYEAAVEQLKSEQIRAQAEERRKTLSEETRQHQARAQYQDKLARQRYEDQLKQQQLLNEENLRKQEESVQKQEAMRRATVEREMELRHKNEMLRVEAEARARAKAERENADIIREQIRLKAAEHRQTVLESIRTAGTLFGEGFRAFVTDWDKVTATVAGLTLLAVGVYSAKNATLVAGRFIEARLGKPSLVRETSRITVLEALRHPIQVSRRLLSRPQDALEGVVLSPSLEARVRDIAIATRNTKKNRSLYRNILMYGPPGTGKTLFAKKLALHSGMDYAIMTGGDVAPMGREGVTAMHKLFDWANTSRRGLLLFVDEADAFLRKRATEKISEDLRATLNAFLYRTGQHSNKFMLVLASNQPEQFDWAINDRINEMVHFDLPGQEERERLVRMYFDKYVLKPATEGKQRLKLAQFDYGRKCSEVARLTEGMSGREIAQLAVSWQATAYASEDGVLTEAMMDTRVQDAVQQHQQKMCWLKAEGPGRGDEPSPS

Measured: binding result

B1: CR2361 IgG1 (antibody, V domains shown)
VH: EVQLVESGGGLVQPGRSLRLSCAASGFTFDDYGMSWVRQAPGKGLEWVSLISWDGGSTYYADSVKGRFTISRDNSKNSLYLQMNSLRAEDTAVYYCAKWAPSHSFDYWGQGTLVTVSS
VL: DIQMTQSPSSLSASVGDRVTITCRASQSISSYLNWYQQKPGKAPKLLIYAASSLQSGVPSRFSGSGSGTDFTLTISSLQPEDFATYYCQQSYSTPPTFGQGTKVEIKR
notes: also called IgG1 CR2361; CR24361 (apparent misprint)
binds: all assays above
